Among the data in patent US11814447B2, “Peptide ligands for binding to EphA2” (BICYCLERD LIMITED, priority 2018, dated 2023) are Ki values, retold here.

Starred links: 1 amine or outer side, 2 acyl side, 3 side chain; linkers in the order of their positions; H or OH if unused. Positions of bridges follow the written chain, without caps; N, C: chain ends. Non-standard residues stand in square brackets, D forms with d. No end group written: not given here. ThiAz = 3-(1,2,4-triazol-1-yl)-alanine, O=C([C@H](Cn1cncn1)N[*:1])[*:2]; TATA = O=C(CC[*:1])N1CN(C(=O)CC[*:2])CN(C(=O)CC[*:3])C1; Ala(2-furyl) = N[C@@H](Cc1ccco1)C(=O)O; 1Nal = N[C@@H](Cc1cccc2ccccc12)C(=O)O; TBMB = c1c(C[*:1])cc(C[*:3])cc1C[*:2]; hArg = N=C(N)NCCCC[C@H](N)C(=O)O; 2Thi = N[C@@H](Cc1cccs1)C(=O)O; Tle = CC(C)(C)[C@H](N)C(=O)O; Pip = O=C(O)[C@@H]1CCCCN1; Aze = O=C(O)[C@@H]1CCN1; Aib = CC(C)(N)C(=O)O; azaGly = NNC(=O)O; βAla = NCCC(=O)O; Sar = CNCC(=O)O

In one assay the target is T1, Human EphA2 (Ecto) (Human, UniProt P29317 24-537).
T1 construct: extracellular domain; in-house)
The experiment in a line: FP competition; tracer Reference Compound C. As for the experimental part: (§1) Peptides without a fluorescent tag were tested in competition with a peptide with a fluorescent tag and a known Kd (Table 2). Peptides were diluted to an appropriate concentration in assay buffer as described in the direct binding assay with a maximum of 5% DMSO, then serially diluted 1 in 2. […] Measurements were conducted as for the direct binding assay, however the gain was determined prior to the first measurement. Data analysis was in Systat Sigmaplot version 12.0 where the mP values were fit to a user defined cubic equation to generate a Ki value: […]
T1 sequence (P29317 24-537): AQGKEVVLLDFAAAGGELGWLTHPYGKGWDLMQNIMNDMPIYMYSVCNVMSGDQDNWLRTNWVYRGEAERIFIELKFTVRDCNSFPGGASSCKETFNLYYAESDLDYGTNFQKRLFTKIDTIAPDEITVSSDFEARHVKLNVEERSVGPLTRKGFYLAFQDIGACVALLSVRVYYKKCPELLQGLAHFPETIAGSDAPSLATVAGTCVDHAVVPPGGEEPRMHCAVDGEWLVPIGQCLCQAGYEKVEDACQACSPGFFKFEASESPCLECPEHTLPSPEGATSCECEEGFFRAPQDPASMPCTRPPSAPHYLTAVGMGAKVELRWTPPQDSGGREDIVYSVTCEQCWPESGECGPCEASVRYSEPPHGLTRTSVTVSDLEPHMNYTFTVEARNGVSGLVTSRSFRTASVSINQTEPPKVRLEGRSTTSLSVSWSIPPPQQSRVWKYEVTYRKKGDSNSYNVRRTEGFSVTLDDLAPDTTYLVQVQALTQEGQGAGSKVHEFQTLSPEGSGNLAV
In general, Ki refers to the dissociation constant of the complex between target and ligand, obtained from inhibition or displacement. Low values mean higher affinity, high ones lower affinity. In turn, ACMNDWWCAMGWKCA (linker 2-8-14 via TATA) [Bicycle Compound Number 15 (TATA scaffold), ACMNDWWCAMGWKCA] yielded a Ki of 278 nM. This counts as sub-micromolar.

The next assay deals with T2, Human EphA2 (Ecto) (Human, UniProt P29317 24-537).
T2 construct: extracellular domain
The experiment in a line: FP competition, tracer Compound 18. As to the method:
as §1
T2 sequence (P29317 24-537): as above
As to Ac-[Sar][Sar]A[dH]DVPCPWG[Aib]FWCP[Tle]NR[Aib]GC (linker 8-15-22 via TBMB) [Bicycle Compound 233], the Ki was determined as 4.8 nM. That is a single-digit nanomolar value.
On the same count and under the same terms, for [βAla][Sar][Sar][Sar][Sar][Sar][Sar][Sar][Sar][Sar][Sar]H[dD]VPCPWGPFWCPVNRPGC (linker 16-23-30 via TBMB) [Bicycle Compound 226] the value was 0.84 nM; for [Sar][Sar]A[ThiAz]DVPCPWGPFWCPVNRPGC (linker 8-15-22 via TBMB) [Bicycle Compound 202], 0.7 nM.
The same measure, in the same setting: the result for Ac-[Sar][Sar]A[dD]DVTCP[1Nal]GPF[1Nal]CPVNRPGC (linker 8-15-22 via TBMB) [Bicycle Compound 283] reads 0.28 nM.
Same read-out and setting: for Ac-[Sar][Sar]H[dD]VPCPW[azaGly]PFWCPVNRPGC (linker 7-14-21 via TBMB) [Bicycle Compound 267] the value was 0.66 nM; for [Sar][Sar]AH[dD]VPCPWGPFWCPVNRPGC (linker 8-15-22 via TBMB) [Bicycle Compound 209], 1.25 nM; for Ac-[Sar][Sar]AH[dD]VPCP[1Nal]GPFWCP[Tle]N[hArg]PGC (linker 8-15-22 via TBMB) [Bicycle Compound 227], 0.75 nM.
In the case of Ac-[Sar][Sar]A[dD]DVTCP[1Nal]G[Aib]FWCP[Tle]N[hArg]PGC (linker 8-15-22 via TBMB) [Bicycle Compound 284], the Ki is 3.8 nM.
Molecule Ac-[Sar][Sar]AH[dD]V[Sar]CPWGPFWCPVNRPGC (linker 8-15-22 via TBMB) [Bicycle Compound 212] yielded a Ki of 4.95 nM.
Consider [Sar][Sar]A[Ala(2-furyl)]DVPCPWGPFWCPVNRPGC (linker 8-15-22 via TBMB) [Bicycle Compound 203], for which the affinity corresponds to a Ki of 0.49 nM.
Still for that read-out and setting: for Ac-[Sar][Sar][dA]HDVPCPWGPFWCPVNRPGC (linker 8-15-22 via TBMB) [Bicycle Compound 194] the value was 1.2 nM; for AHDVPCP[1Nal]GPFWCP[Tle]NRPGC (linker 6-13-20 via TBMB) [Bicycle Compound 190], 0.7 nM; for Ac-[Sar][Sar]AHDVPCPWGPFWCPVNRPGC (linker 8-15-22 via TBMB) [Bicycle Compound 193], 0.59 nM.
Molecule [Sar][Sar]AHAVPCPWGPFWCPVNRPGC (linker 8-15-22 via TBMB) [Bicycle Compound 205] displayed a Ki of 1.8 nM.
On the same count and under the same terms, the result for [Sar][Sar]AH[dA]VPCPWGPFWCPVNRPGC (linker 8-15-22 via TBMB) [Bicycle Compound 206] reads 8.3 nM.
Same read-out and setting: the result for [Sar][Sar]AHDVACPWGPFWCPVNRPGC (linker 8-15-22 via TBMB) [Bicycle Compound 218] reads 1.27 nM; that for [Sar][Sar]AHEVPCPWGPFWCPVNRPGC (linker 8-15-22 via TBMB) [Bicycle Compound 207], 1.3 nM; that for [Sar][Sar]AHDV[dA]CPWGPFWCPVNRPGC (linker 8-15-22 via TBMB) [Bicycle Compound 219], 15 nM.
For the molecule [Sar][Sar]AHD[dA]PCPWGPFWCPVNRPGC (linker 8-15-22 via TBMB) [Bicycle Compound 215], the Ki stood at 26 nM.
Ac-[Sar][Sar]A[dD]DVPCPWGPFWCPVNRPGC (linker 8-15-22 via TBMB) [Bicycle Compound 200]: the affinity, expressed as Ki, was 4.1 nM.
On the same count and under the same terms, for [Sar][Sar]AHDAPCPWGPFWCPVNRPGC (linker 8-15-22 via TBMB) [Bicycle Compound 214] the value was 22.5 nM; for Ac-[Sar][Sar]AADVPCPWGPFWCPVNRPGC (linker 8-15-22 via TBMB) [Bicycle Compound 195], 1.01 nM; for Ac-[Sar][Sar]A[dD]DVTCPWGPFWCPVNRPGC (linker 8-15-22 via TBMB) [Bicycle Compound 281], 5.78 nM.
Same read-out and setting: for [Sar][Sar]AH[dE]VPCPWGPFWCPVNRPGC (linker 8-15-22 via TBMB) [Bicycle Compound 208] the value was 2 nM; for [Sar][Sar]A[dA]DVPCPWGPFWCPVNRPGC (linker 8-15-22 via TBMB) [Bicycle Compound 199], 3.35 nM.
Still for that read-out and setting: the result for Ac-[Sar][Sar]A[dH]DVPCPWGPAWCPVNRPGC (linker 8-15-22 via TBMB; also: A13 (ΨAla): reduced amide backbone bond) [Bicycle Compound 228] reads 210 nM; that for Ac-[Sar][Sar]AH[dD][Tle]PCPWGPFWCPVNRPGC (linker 8-15-22 via TBMB) [Bicycle Compound 211], 3.1 nM.
Molecule [Sar][Sar]AHDV[Pip]CPWGPFWCPVNRPGC (linker 8-15-22 via TBMB) [Bicycle Compound 222] returned a Ki of 3.4 nM.
The same measure, in the same setting: for [Sar][Sar]A[dH]DVPCPWGPFWCPVNRPGC (linker 8-15-22 via TBMB) [Bicycle Compound 197] the value was 1.2 nM; for [βAla][Sar][Sar][Sar][Sar][Sar][Sar][Sar][Sar][Sar][Sar]HDVPCPWGPFWCPVNRPGC (linker 16-23-30 via TBMB) [Bicycle Compound 223], 1.29 nM; for [Sar][Sar]AHDV[Aze]CPWGPFWCPVNRPGC (linker 8-15-22 via TBMB) [Bicycle Compound 221], 3.1 nM.
The same measure, in the same setting: for [Sar][Sar]AHDV[Aib]CPWGPFWCPVNRPGC (linker 8-15-22 via TBMB) [Bicycle Compound 220] the value was 0.83 nM; for Ac-[Sar][Sar]A[dH]D[Tle]PCPWGPFWCPVNRPGC (linker 8-15-22 via TBMB) [Bicycle Compound 204], 2.15 nM.
[Sar][Sar]AHD[Tle]PCPWGPFWCPVNRPGC (linker 8-15-22 via TBMB) [Bicycle Compound 217] had a Ki of 0.49 nM.
On the same count and under the same terms, the result for AHDVPCP[1Nal]G[Aib]FWCP[Tle]NR[Aib]GC (linker 6-13-20 via TBMB) [Bicycle Compound 192] reads 1.75 nM.
[Sar][Sar]A[2Thi]DVPCPWGPFWCPVNRPGC (linker 8-15-22 via TBMB) [Bicycle Compound 201] showed a Ki of 0.6 nM. Compared with the last molecule, the Ki is about 2.9-fold lower.
Still for that read-out and setting: for Ac-[Sar][Sar]AH[dD]VPCPWGPFWCPVNRPGC (linker 8-15-22 via TBMB) [Bicycle Compound 210] the value was 1.1 nM; for AHDVPCP[1Nal]G[Aib]FWCP[Tle]N[hArg]PGC (linker 6-13-20 via TBMB) [Bicycle Compound 191], 3.1 nM; for Ac-[Sar][Sar]A[dH]DVPCPWGPFWCPVNRPGC (linker 8-15-22 via TBMB) [Bicycle Compound 196], 0.95 nM.
Same read-out and setting: for Ac-[Sar][Sar]A[dD]DVTCP[1Nal]GPFWCPVNRPGC (linker 8-15-22 via TBMB) [Bicycle Compound 282] the value was 0.87 nM.
The same measure, in the same setting: the result for Ac-[Sar][Sar]A[dH]DVPCP[1Nal]GPFWCP[Tle]N[hArg]PGC (linker 8-15-22 via TBMB) [Bicycle Compound 230] reads 1.8 nM; that for Ac-[Sar][Sar]AH[dD]V[Aib]CPWGPFWCPVNRPGC (linker 8-15-22 via TBMB) [Bicycle Compound 213], 1.9 nM; that for [Sar][Sar]AHD[Aib]PCPWGPFWCPVNRPGC (linker 8-15-22 via TBMB) [Bicycle Compound 216], 2.77 nM.
